For experiment [1], the system named is downstream signaling of the Tie2 receptor (Akt phosphorylation) in HUVECs. As to the kind of experiment: Akt phosphorylation in HUVECs by mouse anti-Ang2 antibodies plus hAng2 (immunoblot). In kind it is cell-based, human. The following applies: serum-starved HUVECs; antibody combined with hAng2 1 μg/ml; 30 min. The protocol: To investigate whether the mouse anti-Ang2 antibodies induce the downstream signaling of the Tie2 receptor in endothelial cells, HUVECs (LONZA™) were treated with a combination of hAng2 protein and anti-Ang2 antibody, and then the level of Akt phosphorylation, the main downstream signaling protein of Tie2 receptor, was analyzed by immunoblotting. As a negative control group, the full-length hAng2 (R&D® Systems) alone was treated into the cells.
Specifically, HUVECs (1×10^5 cells/ml) were cultured in EGM-2 medium (LONZA™) at 37° C. in a 60 mm culture dish. Cells (90% confluency) were incubated with serum-free EBM-2 medium for 4 hrs for serum starvation. The serum-starved HUVECs were treated with a mixture of anti-Ang2 antibody and hAng2 protein (1 μg/ml, R&D® Systems) and further incubated for 30 min. The cells were washed with cold PBS, treated with lysis buffer, and lysed at 4° C. for 20 min. Then, the cell lysates were prepared by centrifugation at 13000 rpm for 15 min. 5× SDS sample buffer was added to the cell lysate and the cell lysate was boiled at 95° C. for 5 min. Then, the cell lysate was subjected to SDS PAGE and proteins were transferred to a nitrocellulose membrane (GE).
To investigate Akt phosphorylation, the blot was blocked with 5% skim milk-containing TBS-T for 1 hr at room temperature (RT), and incubated with anti-phospho-Akt antibody (S473) at 4° C. for about 8 hrs. The amount of phospho-Akt was visualized by an enhanced chemiluminescence (ECL). Then, the membrane was incubated in a stripping buffer (Thermo) for 15 min, and then reprobed with an anti-Akt antibody to determine the amount of total Akt.

Experiment [2] deals with T1, hAng2 (Homo sapiens, UniProt O15123).
T1 sequence (O15123 19-496): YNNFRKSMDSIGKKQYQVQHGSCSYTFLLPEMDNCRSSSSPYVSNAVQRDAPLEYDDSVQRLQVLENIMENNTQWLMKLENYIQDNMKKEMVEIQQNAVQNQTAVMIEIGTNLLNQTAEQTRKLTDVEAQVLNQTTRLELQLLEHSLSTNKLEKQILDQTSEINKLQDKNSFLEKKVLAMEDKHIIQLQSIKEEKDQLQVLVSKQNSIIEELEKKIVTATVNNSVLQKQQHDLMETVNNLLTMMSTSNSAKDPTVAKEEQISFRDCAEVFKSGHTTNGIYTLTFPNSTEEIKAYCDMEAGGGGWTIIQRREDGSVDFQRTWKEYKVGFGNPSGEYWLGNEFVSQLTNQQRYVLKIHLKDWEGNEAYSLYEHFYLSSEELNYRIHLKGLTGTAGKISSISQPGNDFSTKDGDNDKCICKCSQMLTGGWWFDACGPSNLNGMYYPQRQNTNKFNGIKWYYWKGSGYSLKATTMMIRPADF
The experiment is described as follows: OCTET affinity of mouse monoclonal anti-Ang2 antibodies against hAng2. Particulars: hAng2 fixed on AR2G biosensor, 1:1 binding model. The method, then: The affinity of mouse monoclonal antibody against hAng2 was measured using OCTET® system (ForteBio, real-time, label-free bio-layer interferometry system for determination of affinity, kinetics, and concentration). Specifically, buffer and samples were measured in total 200 μl/well using Black 96-well plates (96 well F-type black plates, Greiner). The biosensor used for affinity measurements was hydrated for 10 min before measurement with AR2G tip (ForteBio OCTET®). After the hydration, hAng2 was diluted in 10 mM sodium acetate, pH 6.0 buffer at a concentration of 10 μg/ml, fixed on AR2G biosensor, and blocked with 1M ethanolamine. The mouse monoclonal anti-Ang2 antibodies were diluted to 50, 25, 12.5, 6.25, 3.125, and 0 nM with 1× kinetic buffer, and subjected to association for 300 seconds and dissociation for 900 seconds. For affinity measurement (KD), the association rate (K-on) and dissociation rate (K-off) were analyzed by binding curve (global) and fitted to 1:1 binding model using OCTET® data analysis v9.0.0.10 program.

B1: 2F10: mouse monoclonal anti-Ang2 antibody; VH SEQ ID NO: 29, VL SEQ ID NO: 31 (antibody, V domains shown)
VH: QVQLVESGGGLVKPGGSLKLSCAASGFTFSDYYMYWIRQTPEKRLEWVATINDGGSYTYYPDSVKGRFTISRDNAKNNLYLQMSSLKSEDTAMYYCARDWGLRPWFVYWGQGTLVTVSA
VL: DIVMTQSHKFMSTSVGDRVSITCKASQDVSTAVAWYQQKPGQSPKLLIYWASTRHTGVPDRFTGSGSGTDYTLTISSVQAEDLALYYCQQHYTTPPTFGSGTKLEIK
modifications: Heavy Chain Variable Region; Light Chain Variable Region
Regarding B1, in experiment [1], the “Akt phosphorylation at S473” value is on record as “strongly induced”. Further, in experiment [2], the “Koff” value stood at 1.71e-05 s⁻¹ and the “Kon” value was found to be 124000 M⁻¹ s⁻¹.

B2: 4E2: mouse monoclonal anti-Ang2 antibody; VH SEQ ID NO: 39, VL SEQ ID NO: 41 (antibody, V domains shown)
VH: EVQLQQSGPELEKPGASVKISCKASGYSFTGYNMNWVKQSNGKSLEWIGNIDPYYGGTSYNQKFKGKATLTVDKSSSTAYMQLKSLTSEDSAVYYCVRYGNYVDYWGQGTTLTVSS
VL: DIVMTQSHKFMSTSVGDRVSITCKASQDVSTAVAWYQQKPGQSPKLLIYWASTRHTGVPDRFTGSGSGTDYTLTISSVQAEDLALYYCQQHYNTPPTFGSGTKLEIK
modifications: Heavy Chain Variable Region; Light Chain Variable Region
Regarding B2, the “Akt phosphorylation at S473” value in experiment [1] was “strongly induced”. Moreover, in experiment [2], the “Koff” value was determined as 0.000134 s⁻¹ and the “Kon” value came out at 28300 M⁻¹ s⁻¹.

For the origin of these results see patent US12331106B2, “Anti-angiopoietin-2 antibodies that induce Tie2 activation” (Institute for Basic Science, priority 2018, dated 2025).
